Laboratory results taken from publication PMC6712418, “Distinct Binding Interactions of α5β1-Integrin and Proteoglycans with Fibronectin” (Biophysical Journal, 2019).

B1: Recombinant human decorin (natural protein, UniProt P07585 31-359, looked up)
chain: DEASGIGPEVPDDRDFEPSLGPVCPFRCQCHLRVVQCSDLGLDKVPKDLPPDTTLLDLQNNKITEIKDGDFKNLKNLHALILVNNKISKVSPGAFTPLVKLERLYLSKNQLKELPEKMPKTLQELRAHENEITKVRKVTFNGLNQMIVIELGTNPLKSSGIENGAFQGMKKLSYIRIADTNITSIPQGLPPSLTELHLDGNKISRVDAASLKGLNNLAKLGLSFNSISAVDNGSLANTPHLRELHLDNNKLTRVPGGLAEHKYIQVVYLHNNNISVVGSSDFCPPGHNTKKASYSGVSLFSNPVQYWEIQPSTFRCVYVRSAIQLGNYK
modifications: a single chondroitin or dermatan sulfate GAG chain attached at the N-terminus (proteoglycan); cysteines bound to the maleimide of an NHS-PEG-Mal linker on the AFM tip
notes: decorin, human, recombinant; 42-kDa core protein; No catalogue number printed; The GAG chain is told of decorin in general; source: bought: R&D Systems
B2: Recombinant human syndecan-4 (natural protein, UniProt P31431 19-145, looked up)
chain: ESIRETEVIDPQDLLEGRYFSGALPDDEDVVGPGQESDDFELSGSGDLDDLEDSMIGPEVVHPLVPLDNHIPERAGSGSQVPTEPKKLEENEVIPKRISPVEESEDVSNKVSMSSTVQGSNIFERTE
modifications: heparan sulfate glycosaminoglycan chains (proteoglycan); cysteines bound to the maleimide of an NHS-PEG-Mal linker on the AFM tip
notes: syndecan-4, human, recombinant; No catalogue number printed; The R&D Systems product is probably the extracellular domain (surmised); also called SDC4; source: bought: R&D Systems

Target: T1, Bovine plasma fibronectin (bovine, UniProt P07589 33-2478)
T1 construct: fibronectin, bovine, from plasma; about 0.5 MDa, two similar subunits attached through disulfide linkages; Adsorbed unmodified on a gold surface from 20 ug/mL in PBS; source: bought: Thermo Fisher Scientific
T1 sequence (P07589 33-2478): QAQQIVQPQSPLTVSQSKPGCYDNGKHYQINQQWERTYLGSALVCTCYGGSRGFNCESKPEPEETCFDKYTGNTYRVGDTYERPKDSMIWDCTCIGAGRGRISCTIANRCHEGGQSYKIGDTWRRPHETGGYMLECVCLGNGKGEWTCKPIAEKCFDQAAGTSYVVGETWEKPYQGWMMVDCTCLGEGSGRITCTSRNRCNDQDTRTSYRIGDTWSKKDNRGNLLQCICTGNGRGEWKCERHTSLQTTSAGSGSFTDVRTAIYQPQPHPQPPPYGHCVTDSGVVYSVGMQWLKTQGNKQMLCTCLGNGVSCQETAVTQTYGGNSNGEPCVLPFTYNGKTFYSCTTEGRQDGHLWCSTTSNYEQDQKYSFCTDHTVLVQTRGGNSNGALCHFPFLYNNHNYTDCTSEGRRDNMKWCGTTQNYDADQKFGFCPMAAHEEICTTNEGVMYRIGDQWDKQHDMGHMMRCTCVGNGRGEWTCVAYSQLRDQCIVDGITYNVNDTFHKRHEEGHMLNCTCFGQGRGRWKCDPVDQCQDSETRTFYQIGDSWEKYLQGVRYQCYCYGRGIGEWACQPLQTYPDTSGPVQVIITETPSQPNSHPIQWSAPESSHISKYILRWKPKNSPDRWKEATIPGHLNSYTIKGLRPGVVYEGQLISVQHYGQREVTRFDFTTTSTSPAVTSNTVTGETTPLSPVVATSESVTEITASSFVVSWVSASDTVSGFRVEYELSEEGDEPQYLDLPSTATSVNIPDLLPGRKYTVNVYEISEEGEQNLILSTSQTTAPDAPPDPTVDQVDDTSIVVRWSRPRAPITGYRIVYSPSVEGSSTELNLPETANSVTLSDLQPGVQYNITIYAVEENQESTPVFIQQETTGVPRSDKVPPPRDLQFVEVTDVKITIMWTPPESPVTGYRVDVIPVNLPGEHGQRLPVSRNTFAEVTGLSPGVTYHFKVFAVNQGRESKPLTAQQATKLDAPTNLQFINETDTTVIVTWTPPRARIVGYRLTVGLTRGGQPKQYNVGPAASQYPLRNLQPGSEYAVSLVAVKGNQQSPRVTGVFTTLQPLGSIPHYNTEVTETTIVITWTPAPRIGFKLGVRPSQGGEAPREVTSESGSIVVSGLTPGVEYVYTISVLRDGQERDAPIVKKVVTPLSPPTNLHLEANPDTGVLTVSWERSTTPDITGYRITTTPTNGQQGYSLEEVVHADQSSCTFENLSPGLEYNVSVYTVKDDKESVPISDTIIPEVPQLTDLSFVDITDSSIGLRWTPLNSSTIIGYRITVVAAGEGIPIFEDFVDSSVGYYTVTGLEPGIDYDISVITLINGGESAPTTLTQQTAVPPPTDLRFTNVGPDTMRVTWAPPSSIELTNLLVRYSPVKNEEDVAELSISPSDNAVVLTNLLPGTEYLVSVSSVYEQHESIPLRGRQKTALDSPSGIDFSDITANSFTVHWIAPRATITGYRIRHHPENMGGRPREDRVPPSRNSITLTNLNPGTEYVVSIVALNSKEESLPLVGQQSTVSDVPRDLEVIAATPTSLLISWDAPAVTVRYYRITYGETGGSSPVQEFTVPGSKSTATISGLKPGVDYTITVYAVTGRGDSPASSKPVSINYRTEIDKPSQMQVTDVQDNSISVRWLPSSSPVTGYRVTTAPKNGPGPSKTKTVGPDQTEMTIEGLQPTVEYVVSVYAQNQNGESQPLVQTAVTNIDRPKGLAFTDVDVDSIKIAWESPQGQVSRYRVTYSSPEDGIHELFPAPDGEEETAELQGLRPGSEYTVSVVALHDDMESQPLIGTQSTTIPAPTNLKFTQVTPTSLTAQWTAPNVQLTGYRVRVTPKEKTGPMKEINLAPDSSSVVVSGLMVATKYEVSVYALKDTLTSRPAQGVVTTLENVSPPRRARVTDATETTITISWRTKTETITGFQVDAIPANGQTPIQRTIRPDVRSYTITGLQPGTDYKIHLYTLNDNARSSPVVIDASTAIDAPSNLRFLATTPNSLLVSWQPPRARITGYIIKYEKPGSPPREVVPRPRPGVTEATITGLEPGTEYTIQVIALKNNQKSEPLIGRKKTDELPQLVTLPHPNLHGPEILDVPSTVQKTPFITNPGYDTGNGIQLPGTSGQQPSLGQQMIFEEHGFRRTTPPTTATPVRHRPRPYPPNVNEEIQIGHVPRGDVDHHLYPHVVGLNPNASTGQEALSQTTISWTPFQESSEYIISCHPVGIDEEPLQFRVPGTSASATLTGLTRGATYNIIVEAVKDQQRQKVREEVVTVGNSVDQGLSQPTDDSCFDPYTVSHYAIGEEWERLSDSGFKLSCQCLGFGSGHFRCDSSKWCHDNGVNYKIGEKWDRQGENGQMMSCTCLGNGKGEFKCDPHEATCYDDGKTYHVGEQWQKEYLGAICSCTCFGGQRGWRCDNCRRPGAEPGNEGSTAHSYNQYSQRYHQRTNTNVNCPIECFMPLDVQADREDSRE
Experiment: dynamic single-molecule force spectroscopy (AFM); fibronectin adsorbed on a gold surface; integrin or proteoglycan tethered by PEG to the AFM tip; PBS; trigger force 500 pN, no dwell; retraction speed varied; Bell-Evans fit of rupture force against ln(loading rate), fm = 10^7 s^-1 assumed
Conditions: both partners purified

koff [s⁻¹]	Binder
40 ± 4	B1
2.4 ± 0.4	B2
